Assay results taken from patent publication US20170088600A1.
Several values for one entry are separate records, joined by “and”; a condition that tells them apart may be missing. Equal values may be shown once.

What was measured:
[1] = target: TRAIL-R1-Fc (human TRAIL-R1 ectodomain Fc fusion) (human) (UniProt O00220); test: SPR, steady-state analysis (KDeq); TRAIL-R1-Fc captured, UL141 analyte
[2] = target: TRAIL-R2-Fc (human TRAIL-R2 aa 58-184, thrombin site, human IgG1 Fc), wild type (human) (UniProt O14763); test: SPR, WT TRAIL-R2-Fc captured, UL141 as analyte
TRAIL-R2-Fc (human TRAIL-R2 aa 58-184, thrombin site, human IgG1 Fc), wild type (human), sequence (O14763 other isoform, or with tags, fused parts or gaps limits assumed): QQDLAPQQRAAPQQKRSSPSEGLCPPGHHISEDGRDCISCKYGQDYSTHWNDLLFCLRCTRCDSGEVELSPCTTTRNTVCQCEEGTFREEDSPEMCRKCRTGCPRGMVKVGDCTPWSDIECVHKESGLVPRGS

[3] = target: CD155-Fc (CD155 / poliovirus receptor Fc fusion) (UniProt P15151); test: SPR kinetic fit, 1:1 Langmuir; CD155-Fc captured, UL141 analyte
CD155-Fc (CD155 / poliovirus receptor Fc fusion), sequence (P15151 21-343): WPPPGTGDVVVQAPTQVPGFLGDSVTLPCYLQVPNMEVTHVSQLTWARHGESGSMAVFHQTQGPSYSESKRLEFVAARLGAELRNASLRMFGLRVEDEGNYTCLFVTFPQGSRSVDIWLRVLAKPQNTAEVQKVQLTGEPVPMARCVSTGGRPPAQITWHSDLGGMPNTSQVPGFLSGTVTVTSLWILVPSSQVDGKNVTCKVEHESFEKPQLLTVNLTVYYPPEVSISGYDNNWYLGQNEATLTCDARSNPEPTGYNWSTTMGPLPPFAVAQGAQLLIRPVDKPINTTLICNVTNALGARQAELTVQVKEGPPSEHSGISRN

[4] = target: TRAIL-R1-Fc (human TRAIL-R1 ectodomain Fc fusion) (human) (UniProt O00220); test: SPR, average of KDeq and kinetic KD (KDave)
[5] = target: TRAIL-R1-Fc (human TRAIL-R1 ectodomain Fc fusion) (human) (UniProt O00220); test: SPR kinetic fit, 1:1 Langmuir; TRAIL-R1-Fc captured, UL141 analyte
[6] = target: TRAIL-R2-Fc M152A (human) (UniProt O14763); test: SPR, mutant TRAIL-R2-Fc captured, UL141 as analyte
TRAIL-R2-Fc M152A (human), sequence (O14763 other isoform, or with tags, fused parts or gaps M152A M152A limits assumed): as the sequence (O14763 other isoform, or with tags, fused parts or gaps limits assumed) above, with M95A counted along it

[7] = target: TRAIL-R2-Fc E78A/D109A (human) (UniProt O14763); test: SPR, mutant TRAIL-R2-Fc captured, UL141 as analyte
TRAIL-R2-Fc E78A/D109A (human), sequence (O14763 other isoform, or with tags, fused parts or gaps E78A D109A E78A D109A limits assumed): as the sequence (O14763 other isoform, or with tags, fused parts or gaps limits assumed) above, with E21A, D52A counted along it

[8] = target: TRAIL-R2-Fc K155A (human) (UniProt O14763); test: SPR, mutant TRAIL-R2-Fc captured, UL141 as analyte
TRAIL-R2-Fc K155A (human), sequence (O14763 other isoform, or with tags, fused parts or gaps K155A K155A limits assumed): as the sequence (O14763 other isoform, or with tags, fused parts or gaps limits assumed) above, with K98A counted along it

[9] = target: TRAIL-R2-Fc V167A (human) (UniProt O14763); test: SPR, mutant TRAIL-R2-Fc captured, UL141 as analyte
TRAIL-R2-Fc V167A (human), sequence (O14763 other isoform, or with tags, fused parts or gaps V167A V167A limits assumed): as the sequence (O14763 other isoform, or with tags, fused parts or gaps limits assumed) above, with V110A counted along it

[10] = target: TRAIL-R2-Fc R154A (human) (UniProt O14763); test: SPR, mutant TRAIL-R2-Fc captured, UL141 as analyte
TRAIL-R2-Fc R154A (human), sequence (O14763 other isoform, or with tags, fused parts or gaps R154A R154A limits assumed): as the sequence (O14763 other isoform, or with tags, fused parts or gaps limits assumed) above, with R97A counted along it

[11] = target: TRAIL-R2-Fc F112A (human) (UniProt O14763); test: SPR, mutant TRAIL-R2-Fc captured, UL141 as analyte
TRAIL-R2-Fc F112A (human), sequence (O14763 other isoform, or with tags, fused parts or gaps F112A F112A limits assumed): as the sequence (O14763 other isoform, or with tags, fused parts or gaps limits assumed) above, with F55A counted along it

[12] = target: TRAIL-R2-Fc P150A (human) (UniProt O14763); test: SPR, mutant TRAIL-R2-Fc captured, UL141 as analyte
TRAIL-R2-Fc P150A (human), sequence (O14763 other isoform, or with tags, fused parts or gaps P150A P150A limits assumed): as the sequence (O14763 other isoform, or with tags, fused parts or gaps limits assumed) above, with P93A counted along it

[13] = target: TRAIL-R2-Fc L110A/L114A (human) (UniProt O14763); test: SPR, mutant TRAIL-R2-Fc captured, UL141 as analyte
TRAIL-R2-Fc L110A/L114A (human), sequence (O14763 other isoform, or with tags, fused parts or gaps L110A L114A L110A L114A limits assumed): as the sequence (O14763 other isoform, or with tags, fused parts or gaps limits assumed) above, with L53A, L57A counted along it

[14] = target: TRAIL-R2-Fc D148A (human) (UniProt O14763); test: SPR, mutant TRAIL-R2-Fc captured, UL141 as analyte
TRAIL-R2-Fc D148A (human), sequence (O14763 other isoform, or with tags, fused parts or gaps D148A D148A limits assumed): as the sequence (O14763 other isoform, or with tags, fused parts or gaps limits assumed) above, with D91A counted along it

[15] = target: TRAIL-R2-Fc M152A/R154A/K155A (human) (UniProt O14763); test: SPR, mutant TRAIL-R2-Fc captured, UL141 as analyte
TRAIL-R2-Fc M152A/R154A/K155A (human), sequence (O14763 other isoform, or with tags, fused parts or gaps M152A R154A K155A M152A R154A K155A limits assumed): as the sequence (O14763 other isoform, or with tags, fused parts or gaps limits assumed) above, with M95A, R97A, K98A counted along it

[16] = target: TRAIL-R2-Fc (human TRAIL-R2 aa 58-184, thrombin site, human IgG1 Fc), wild type (human) (UniProt O14763); test: SPR kinetic fit, 1:1 Langmuir; TRAIL-R2-Fc captured, UL141 analyte
[17] = target: CD155-Fc (CD155 / poliovirus receptor Fc fusion) (UniProt P15151); test: SPR, KDave
[18] = target: TRAIL-R2-Fc (human TRAIL-R2 aa 58-184, thrombin site, human IgG1 Fc), wild type (human) (UniProt O14763); test: SPR, KDave

UL141 ectodomain of human cytomegalovirus (HCMV FIX strain), C-terminal poly-histidine tag (ligand), sequence (Q6RJQ3 30-279, tags left off): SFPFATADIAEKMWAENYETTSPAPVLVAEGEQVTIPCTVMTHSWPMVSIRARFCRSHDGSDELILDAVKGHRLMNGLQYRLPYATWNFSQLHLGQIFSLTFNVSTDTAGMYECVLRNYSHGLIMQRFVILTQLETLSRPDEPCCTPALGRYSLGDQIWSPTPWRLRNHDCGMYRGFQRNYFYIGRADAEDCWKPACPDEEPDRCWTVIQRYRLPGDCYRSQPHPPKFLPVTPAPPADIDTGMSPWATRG
TRAIL-R1-Fc (human TRAIL-R1 ectodomain Fc fusion) (human), sequence (O00220 24-239): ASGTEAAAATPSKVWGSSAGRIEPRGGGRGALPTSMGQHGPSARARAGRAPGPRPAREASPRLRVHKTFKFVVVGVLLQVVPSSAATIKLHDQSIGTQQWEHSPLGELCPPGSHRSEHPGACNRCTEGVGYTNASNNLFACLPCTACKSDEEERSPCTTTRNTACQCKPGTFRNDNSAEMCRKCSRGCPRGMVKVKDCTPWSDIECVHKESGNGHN

## UL141 ectodomain of human cytomegalovirus (HCMV FIX strain), C-terminal poly-histidine tag (ligand)
[1]
  Kd: 2.27 nM
[2]
  Kd: 6 nM and 5.95 nM
  koff: 7.21e-05 s⁻¹
  kon: 12100 M⁻¹ s⁻¹
[3]
  Kd: 1.97 nM
  koff: 0.000346 s⁻¹
  kon: 176000 M⁻¹ s⁻¹
[4]
  Kd: 2300 nM
[5]
  Kd: 2330 nM
  koff: 0.014 s⁻¹
  kon: 6020 M⁻¹ s⁻¹
[6]
  Kd: 7.49 nM
  koff: 0.000382 s⁻¹
  kon: 51000 M⁻¹ s⁻¹
[7]
  Kd: 60.4 nM
  fold lower binding than wild type: 10 fold
  koff: 0.00151 s⁻¹
  kon: 25000 M⁻¹ s⁻¹
[8]
  Kd: 7.74 nM
  koff: 0.00038 s⁻¹
  kon: 49100 M⁻¹ s⁻¹
[9]
  Kd: 15.5 nM
  fold lower binding than wild type: 2.5 fold
  koff: 0.00048 s⁻¹
  kon: 31000 M⁻¹ s⁻¹
[10]
  Kd: 6.26 nM
  koff: 0.000243 s⁻¹
  kon: 38800 M⁻¹ s⁻¹
[11]
  Kd: 630 nM
  fold lower binding than wild type: 100 fold
  koff: 0.00566 s⁻¹
  kon: 8980 M⁻¹ s⁻¹
[12]
  Kd: 8.32 nM
  koff: 0.000391 s⁻¹
  kon: 47000 M⁻¹ s⁻¹
[13]
  Kd: 42.7 nM
  fold decrease in binding affinity versus wild type: 7 fold
  fold lower binding than wild type: 10 fold
  koff: 0.00064 s⁻¹
  kon: 15000 M⁻¹ s⁻¹
[14]
  Kd: 55.3 nM
  fold lower binding than wild type: 10 fold
  koff: 0.0013 s⁻¹
  kon: 23500 M⁻¹ s⁻¹
[15]
  Kd: 7.39 nM
  koff: 0.00027 s⁻¹
  kon: 36500 M⁻¹ s⁻¹
[16]
  Kd: 5.96 nM
  koff: 7.21e-05 s⁻¹
  kon: 12100 M⁻¹ s⁻¹
[17]
  Kd: 2 nM
[18]
  Kd: 6 nM
